In publication PMC12095580, “Wnt signalosome assembly is governed by conformational flexibility of Axin and by the AP2 clathrin adaptor” (Nature Communications, 2025) one finds ratio to parent data, which are given here for 5 variants.

B1: LRP6-GFP [not stated] / FLAG-AP2μ [not stated] (parent complex)
chain 1: APLLLYANRRDLRLVDATNGKENATIVVGGLEDAAAVDFVFSHGLIYWSDVSEEAIKRTEFNKTESVQNVVVSGLLSPDGLACDWLGEKLYWTDSETNRIEVSNLDGSLRKVLFWQELDQPRAIALDPSSGFMYWTDWGEVPKIERAGMDGSSRFIIINSEIYWPNGLTLDYEEQKLYWADAKLNFIHKSNLDGTNRQAVVKGSLPHPFALTLFEDILYWTDWSTHSILACNKYTGEGLREIHSDIFSPMDIHAFSQQRQPNATNPCGIDNGGCSHLCLMSPVKPFYQCACPTGVKLLENGKTCKDGATELLLLARRTDLRRISLDTPDFTDIVLQLEDIRHAIAIDYDPVEGYIYWTDDEVRAIRRSFIDGSGSQFVVTAQIAHPDGIAVDWVARNLYWTDTGTDRIEVTRLNGTMRKILISEDLEEPRAIVLDPMVGYMYWTDWGEIPKIERAALDGSDRVVLVNTSLGWPNGLALDYDEGKIYWGDAKTDKIEVMNTDGTGRRVLVEDKIPHIFGFTLLGDYVYWTDWQRRSIERVHKRSAEREVIIDQLPDLMGLKATNVHRVIGSNPCAEENGGCSHLCLYRPQGLRCACPIGFELISDMKTCIVPEAFLLFSRRADIRRISLETNNNNVAIPLTGVKEASALDFDVTDNRIYWTDISLKTISRAFMNGSALEHVVEFGLDYPEGMAVDWLGKNLYWADTGTNRIEVSKLDGQHRQVLVWKDLDSPRALALDPAEGFMYWTEWGGKPKIDRAAMDGSERTTLVPNVGRANGLTIDYAKRRLYWTDLDTNLIESSNMLGLNREVIADDLPHPFGLTQYQDYIYWTDWSRRSIERANKTSGQNRTIIQGHLDYVMDILVFHSSRQSGWNECASSNGHCSHLCLAVPVGGFVCGCPAHYSLNADNRTCSAPTTFLLFSQKSAINRMVIDEQQSPDIILPIHSLRNVRAIDYDPLDKQLYWIDSRQNMIRKAQEDGSQGFTVVVSSVPSQNLEIQPYDLSIDIYSRYIYWTCEATNVINVTRLDGRSVGVVLKGEQDRPRAVVVNPEKGYMYFTNLQERSPKIERAALDGTEREVLFFSGLSKPIALALDSRLGKLFWADSDLRRIESSDLSGANRIVLEDSNILQPVGLTVFENWLYWIDKQQQMIEKIDMTGREGRTKVQARIAQLSDIHAVKELNLQEYRQHPCAQDNGGCSHICLVKGDGTTRCSCPMHLVLLQDELSCGEPPTCSPQQFTCFTGEIDCIPVAWRCDGFTECEDHSDELNCPVCSESQFQCASGQCIDGALRCNGDANCQDKSDEKNCEVLCLIDQFRCANGQCIGKHKKCDHNVDCSDKSDELDCYPTEEPAPQATNTVGSVIGVIVTIFVSGTVYFICQRMLCPRMKGDGETMTNDYVVHGPASVPLGYVPHPSSLSGSLPGMSRGKSMISSLSIMGGSSGPPYDRAHVTGASSSSSSSTKGTYFPAILNPPPSPATERSHYTMEFGYSSNSPSTHRSYSYRPYSYRHFAPPTTPCSTDVCDSDYAPSRRMTSVATAKGYTSDLNYDSEPVPPPPTPRSQYLSAEENYESCPPSPYTERSYSHHLYPPPPSPCTDSS
chain 2: MIGGLFIYNHKGEVLISRVYRDDIGRNAVDAFRVNVIHARQQVRSPVTNIARTSFFHVKRSNIWLAAVTKQNVNAAMVFEFLYKMCDVMAAYFGKISEENIKNNFVLIYELLDEILDFGYPQNSETGALKTFITQQGIKSQHQTKEEQSQITSQVTGQIGWRREGIKYRRNELFLDVLESVNLLMSPQGQVLSAHVSGRVVMKSYLSGMPECKFGMNDKIVIEKQGKGTADETSKSGKQSIAIDDCTFHQCVRLSKFDSERSISFIPPDGEFELMRYRTTKDIILPFRVIPLVREVGRTKLEVKVVIKSNFKPSLLAQKIEVRIPTPLNTSGVQVICMKGKAKYKASENAIVWKIKRMAGMKESQISAEIELLPTNDKKKWARPPISMNFEVPFAPSGLKVRYLKVFEPKLNYSDHDVIKWVRYIGRSGIYETRC

In this assay the parent is B1. Put plainly: coIP (FLAG IP, α-GFP blot densitometry).
Regarding chain 1 Y1498A, chain 1 Y1501A, chain 1 Y1503A, chain 1 F1506A, the ratio to parent stood at 0.05. In the case of chain 1 Y1503A it was 0.21; in that of chain 1 Y1498A, chain 1 Y1501A, 0.58. As for chain 1 S1560A, the ratio to parent turned out to be 0.69. As for chain 1 Y1503A, chain 1 F1506A, the ratio to parent came to 0.31.
